The source of these data is publication PMC12643504.

For assay [1], the target named is PKD2 R803X Taiwan founder truncation variant (human) (UniProt Q13563). Briefly: SEC; channel proteins solubilised in DDM, Strep-Tactin affinity purified, reconstituted in amphipol A8-35, MBP cleaved by TEV; SEC at 4°C on Superdex 200 10/300 GL in 25 mM HEPES pH 7.4, 150 mM NaCl, 1 mM TCEP, 1 mM CaCl2; FSEC (Superose 6 5/150 GL, tryptophan fluorescence) after heating. (Size exclusion chromatography separates by hydrodynamic size, large species first.)

The target of assay [2] is Full-length PKD2 (WT) (human) (UniProt Q13563). The description is as above.

With “PKD2 R803X Taiwan founder truncation variant (from UniProt Q13563 1-802) (domain or fragment)”, in assay [1], the stoichiometry N was 4.
For the substance “Full-length PKD2 (WT) (from UniProt Q13563 1-968) (natural protein)”, in assay [2], the stoichiometry N amounted to 4.

By stoichiometry N is commonly meant the number of molecules, sites or subunits per partner or assembly.
